Sequences and labels used below:
B1: AB-009358 (antibody, V domains shown)
VH: QVHLVQSGAEVKKPGASVKISCKASGYTFTSYYVHWVRQAPGQGLEWMGIIKPSGAGTIYAQKFQGRVTMTRDTSTSTVYMELSSLISEDTAVYYCARGGGVTDRDYWGQGTLVTVSS
VL: QSALTQEASVSATVGQKVTLSCTGNTNNIGGYAVGWHQQISHGAPKTVMFGNSLPSGIPDRFSGSKSGTTASLIISGLQPEDEADYYCSTWDSSLGAVLFGGGTKLTVL
B2: AB-009615 (antibody, V domains shown)
VH: QVQLVESGGGVVQPGRSLRLSCAASGFTFSSYGMHWVRQAPGKGLEWVAVIWYDGSNKYYADSVKGRFTISRDNSKNTLYLQMNSLRAEDTAVYYCAKVGSPYCSGGSCYSGYFDYWGQGTLVTVSS
VL: not shown
B3: AB-009620 (antibody, V domains shown)
VH: QITLKESGPTLVKPTQTLTLTCTFSGFSLSTSGVGVGWIRQPPGKALEWLALIYWDDDKRYSPSLKSRLTITKDTSKNQVVLTMTNMDPVDTATYYCAHHEVATVFDYWGQGTLVTVSS
VL: QSALTQPASVSGSPGQSITISCTGTSSDVGAYNYVSWYQQHPGKAPKLMIYEVSNRPSGVSNRFSGSKSGNTASLTISGLQAEDEADYYCSSYTSSSTVFGGGTKLTVL
B4: AB-009734 (antibody, V domains shown)
VH: QVHLVQSGAEVKTPGASVRVSCKASGYTFTSHYMHWVRQAPGQGLEWMGLINPSGSGTAYPQHFQGRVTMTRDTSTTTDYMDLSSLRSEDTAMYFCARMERSGAFDLWGQGTMVTVSS
VL: EIVLTQSPGTLSLSPGERATLSCRASQTISSRYLAWYYQKPGQAPRLLIQGSSIRATGIPDRFSGSGSGTDFTLTISRLEPEDFAVYYCQHYGSSPPMYTFGQGTKLEIK
B5: AB-009346 (antibody, V domains shown)
VH: EVQLVESGGGVVRPGGSLRLSCAASGFTFDDYGMSWVRQAPGKGLEWVSGINWNGGSTGYADSVKGRFTISRDNAKNSLYLQMNSLRAEDTALYYCARWPLLGISGYYHYYMDVWGKGTTVTVSS
VL: QSALTQPRSVSGSPGQSVTISCTGTSSDVGGYNYVSWYQQHPGKAPKLMIYDVSKRPSGVPDRFSGSKSGNTASLTISGLQAEDEADYYCCSYAGSYTLLFGGGTKLIVL
B6: AB-009769 (antibody, V domains shown)
VH: EVQLVESGGGLVQPGGSLRLSCAASGFTFSSYWMSWVRQAPGKGLEWVANIKQDGSEKYYVDSVKGRFTISRDNAKNSLYLQMNSLRAEDTAVYYCARSPEVLWFGDPVLDNWFDPWGQGTLVTVSS
VL: SYELTQPPSVSVSPGQTARITCSGDALPKQYAYWYQQKPGQAPVLVIYKDSERPSGIPERFSGSSSGTTVTLTISGVQAEDEADYYCQSADSSGTYPVVFGGGTKLTVL
B7: AB-009661 (antibody, V domains shown)
VH: QVQLVESGGGVVQPGRSLRLSCAASGFTFSSYGMHWVRQAPGKGLEWVAVISYDGSNKYYADSVKGRFTISRDNSKNTLYLQMNSLRAEDTAVYYCAKDYGDYGGMDVWGQGTTVTVSS
VL: not shown
B8: AB-009281 (antibody, V domains shown)
VH: EVQLVETGGGLIQPGGSLRLSCAASGFTVSSNYMSWVRQAPGKGLEWVSVIYSGGSTYYADSVKGRFTISRDNSKNTLYLQMNSLRAEDTAVYYCARDLYYYGMDVWGQGTTVTVSS
VL: DIQLTQSPSFLSASVGDRVTITCRASQGISSYLAWYQQKPGKAPKLLIYAASTLQSGVPSRFSGSGSGTEFTLTISSLQPEDFATYYCQQLNSYPTFGQGTKVEIK
B9: AB-009614 (antibody, V domains shown)
VH: QVQLVESGGGVVQPGRSLRLSCAASGFTFSSYGMHWVRQAPGKGLEWVAVISYDGSNKYYADSVKGRFTISRDNSKNTLYLQMNSLRAEDTAVYYCAKDQKYYDILTGYYRSTYYYYYYGMDVWGQGTTVTVSS
VL: not shown

For this test, the target named is SARS-CoV-2 native Spike (S) trimer (Acro Biosystems) (SARS-CoV-2), P0DTC2. The test is described as follows: ELISA on spike trimer. The following applies: remark: other sources report otherwise. For orientation: An ELISA detects its analyte on a solid surface through an enzyme-linked reagent.
With B1, the OD (450 nm) is 2.76 OD (450 nm).

For B2, the OD (450 nm) was 2.8 OD (450 nm).

As to B3, the OD (450 nm) was 2.7 OD (450 nm).

For the molecule B4, the OD (450 nm) was 3.57 OD (450 nm).

Take B5: the OD (450 nm) is 2.55 OD (450 nm).

For B6, the OD (450 nm) is 2.87 OD (450 nm).

With B7, the OD (450 nm) was 2.86 OD (450 nm).

B8: the OD (450 nm) was 2.6 OD (450 nm).

As to B9, the OD (450 nm) is 0.361 OD (450 nm).

The values above are taken from US20240301038A1.
